Experimental findings from patent US20090186811A1 (published 2009) are described below.

The target in one test is T1, human Y2 receptor (human, UniProt P49146 1-381).
T1 sequence (looked up): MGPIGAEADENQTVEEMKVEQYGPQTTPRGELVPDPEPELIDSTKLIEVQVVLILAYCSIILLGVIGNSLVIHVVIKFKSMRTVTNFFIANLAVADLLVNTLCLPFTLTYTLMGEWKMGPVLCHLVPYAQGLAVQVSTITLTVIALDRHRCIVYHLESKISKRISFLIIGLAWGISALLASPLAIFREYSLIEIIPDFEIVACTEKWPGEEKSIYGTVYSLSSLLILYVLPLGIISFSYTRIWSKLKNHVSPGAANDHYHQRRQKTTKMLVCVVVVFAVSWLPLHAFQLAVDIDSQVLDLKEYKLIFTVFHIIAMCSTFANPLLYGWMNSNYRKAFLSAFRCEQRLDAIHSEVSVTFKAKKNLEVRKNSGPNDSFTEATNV
Kind of test: cell-based or functional assay.

For test [1], the target named is T2, human Y4 receptor (human, UniProt P50391 1-375). Kind of test: cell-based or functional assay.
Test [2] has as its target T3, human Y5 receptor (human, UniProt Q15761 1-445).
T3 sequence (looked up): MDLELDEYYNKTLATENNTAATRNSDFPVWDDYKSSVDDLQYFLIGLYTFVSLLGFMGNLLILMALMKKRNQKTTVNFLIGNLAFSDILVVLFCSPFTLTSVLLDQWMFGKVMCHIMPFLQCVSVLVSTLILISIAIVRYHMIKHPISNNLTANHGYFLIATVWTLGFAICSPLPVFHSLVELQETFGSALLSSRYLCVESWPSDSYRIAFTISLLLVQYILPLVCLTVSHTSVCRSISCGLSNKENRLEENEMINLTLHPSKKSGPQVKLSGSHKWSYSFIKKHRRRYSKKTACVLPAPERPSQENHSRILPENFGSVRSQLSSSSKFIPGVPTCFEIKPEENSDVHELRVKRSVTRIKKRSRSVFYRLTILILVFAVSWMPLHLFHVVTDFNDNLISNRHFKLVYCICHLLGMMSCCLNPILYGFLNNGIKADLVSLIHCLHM
Kind of test: cell-based or functional assay.

For test [3], the target named is T2, human Y4 receptor. The test can be described thus: competition binding, 125I-PP displaced, COS-7 cells with human Y4.
Protocol: (§1) Transfected COS-7 cells are transferred to culture plates one day after transfection at a density of 40×10^3 cells per well aiming at 5-8% binding of the radioactive ligand. […] Determinations are made in duplicate. Steady state binding is reached with the radioactive ligand under these conditions. EC50 values were calculated using a standard pharmacological data handling software, Prism 3.0 (graphPad Sofware, San Diego, USA).
Test [4] addresses T3, human Y5 receptor. The test can be described thus: competition binding, 125I-NPY displaced, COS-7 cells with human Y5.
Protocol: as §1

No end group written: not given here. Bounds are passed on as bounds.

T2 sequence (P50391 whole entry): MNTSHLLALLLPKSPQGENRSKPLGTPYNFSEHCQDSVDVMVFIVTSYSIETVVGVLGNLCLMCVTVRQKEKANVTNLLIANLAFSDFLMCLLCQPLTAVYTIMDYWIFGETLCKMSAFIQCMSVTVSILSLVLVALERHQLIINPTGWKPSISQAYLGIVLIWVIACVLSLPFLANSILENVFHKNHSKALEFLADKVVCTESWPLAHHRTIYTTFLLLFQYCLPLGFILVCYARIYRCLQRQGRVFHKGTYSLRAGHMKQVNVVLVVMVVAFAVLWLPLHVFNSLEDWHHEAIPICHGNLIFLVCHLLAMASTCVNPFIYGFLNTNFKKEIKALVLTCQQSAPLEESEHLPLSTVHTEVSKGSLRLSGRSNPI

Take APLKPVYPGDNATPEQMAQYAADLRRYINMLTRQRY-NH2 [[Lys4,Gln34]PP]: the results for the “EC50 (inositol phosphate turnover)” value with human Y2 receptor, with human Y4 receptor [1] and with human Y5 receptor [2] were 0.17 nM, 64 nM and 3.8 nM, respectively. Moreover, the IC50 with human Y4 receptor [3] came to 6 nM; with human Y5 receptor [4], 0.87 nM.
For the molecule KKKKKKRHYLNLVTRQRY-NH2 (also called [Lys]6-PYY25-36) [Lys-Lys-Lys-Lys-Lys-Lys-PYY25-36], the “EC50 (inositol phosphate turnover)” value in the test with human Y5 receptor [2] was greater than 1000 nM. The IC50 with human Y5 receptor [4] was determined as 429 nM.
